We go through four molecules from publication PMC5623874 (Frontiers in Immunology, 2017).

Data set [1] concerns the molecule itself. Nature of the data set: transmission electron microscopy of HA-NP and sdAb mixtures.
The target in data set [2] is T1, Marburgvirus (Marburg Musoke) nucleoprotein, polymeric (Marburg virus, Musoke, UniProt P27588).
T1 construct: source: HEK 293T, transient transfection, purified (CsCl gradient)
Nature of the data set: ELISA. To be noted: both partners purified.

B1: HA-tagged Marburgvirus (Marburg Musoke) nucleoprotein, polymeric (natural protein)
chain: MDLHSLLELGTKPTAPHVRNKKVILFDTNHQVSICNQIIDAINSGIDLGDLLEGGLLTLCVEHYYNSDKDKFNTSPVAKYLRDAGYEFDVIKNADATRFLDVSPNEPHYSPLILALKTLESTESQRGRIGLFLSFCSLFLPKLVVGDRASIEKALRQVTVHQEQGIVTYPNHWLTTGHMKVIFGILRSSFILKFVLIHQGVNLVTGHDAYDSIISNSVGQTRFSGLLIVKTVLEFILQKTDSGVTLHPLVRTSKVKNEVASFKQALSNLARHGEYAPFARVLNLSGINNLEHGLYPQLSAIALGVATAHGSTLAGVNVGEQYQQLREAAHDAEVKLQRRHEHQEIQAIAEDDEERKILEQFHLQKTEITHSQTLAVLSQKREKLARLAAEIENNIVEDQGFKQSQNRVSQSFLNDPTPVEVTVQARPMNRPTALPPPVDDKIEHESTEDSSSSSSFVDLNDPFALLNEDEDTLDDSVMIPGTTSREFQGIPEPPRQSQDLNNSQGKQEDESTNRIKKQFLRYQELPPVQEDDESEYTTDSQESIDQPGSDNEQGVDLPPPPLYAQEKRQDPIQHPAANPQDPFGSIGDVNGDILEPIRSPSSPSAPQEDTRMREAYELSPDFTNDEDNQQNWPQRVVTKKGRTFLYPNDLLQTNPPESLITALVEEYQNPVSAKELQADWPDMSFDERRHVAMNL
notes: also called MARV HA-NP; HA-NP
On to B1, for which the binding result in data set [1] is listed as “binds”.

B2: anti-MARV NP sdAb B monomer (pecan126) (VHH)
VHH: KVQLQESGGGLVQAGGSLRLSCAASGGTFSINTLGWYRRAPGKEREFVARISSGGITRYADSVKGRFTISRDNGKNTVYLDMNSLKPEDTAVYYCMYRNWGGGLDVYWGQGTQVTVSS
notes: also called anti-MARV sdAb B; source: E. coli HBV88 periplasm, purified (IMAC, gel filtration)
B2: the binding result in data set [2] is given as “binds”.

B3: anti-MARV NP sdAb C monomer (pecan126) (VHH)
VHH: KVQLQESGGGLVQVGGSLRLSCKASGFTFRSSAMGWYRRAPGKQRELVASLTTTGTADYGDFVKGRFTISRDNAENTVDLHMNSLKPEDTAVYYCHEDPYGMESLRYWGQGTQVTVSS
notes: also called anti-MARV sdAb C; source: E. coli HBV88 periplasm, purified (IMAC, gel filtration)
Take B3: in data set [2], the binding result was “binds”.

B4: anti-MARV NP sdAb A monomer (pecan126) (VHH)
VHH: EVKLQESGGGLVQAGESLRLSCAVPPEVFDIRTVAWYRQVPLGKGRELLSSITPWNKTTYEDSVKDRFTISRDNAKYTVYLQMNDLKPEDTAVYYCAQGWGIASMRYWGQGTQVTVSS
notes: also called anti-MARV sdAb A; source: E. coli HBV88 periplasm, purified (IMAC, gel filtration)
Regarding B4, the binding result in data set [2] is recorded as “binds”.
